# IntAct's records for PubMed 27135603
# B1: Inducible T-cell costimulator (Homo sapiens), Q9Y6W8 (parent)
# chain: MKSGLWYFFLFCLRIKVLTGEINGSANYEMFIFHNGGVQILCKYPDIVQQFKMQLLKGGQILCDLTKTKGSGNTVSIKSLKFCHSQLSNNSVSFFLYNLDHSHANYYFCNLSIFDPPPFKVTLTGGYLHIYESQLCCQLKFWLPIGCAAFVVVCILGCILICWLTKKKYSSSVHDPNGEYMFMRAVNTAKKSRLTDVTL
# B2: TNF receptor-associated factor 2 (Homo sapiens), Q12933 (parent)
# chain: MAAASVTPPGSLELLQPGFSKTLLGTKLEAKYLCSACRNVLRRPFQAQCGHRYCSFCLASILSSGPQNCAACVHEGIYEEGISILESSSAFPDNAARREVESLPAVCPSDGCTWKGTLKEYESCHEGRCPLMLTECPACKGLVRLGEKERHLEHECPERSLSCRHCRAPCCGADVKAHHEVCPKFPLTCDGCGKKKIPREKFQDHVKTCGKCRVPCRFHAIGCLETVEGEKQQEHEVQWLREHLAMLLSSVLEAKPLLGDQSHAGSELLQRCESLEKKTATFENIVCVLNREVERVAMTAEACSRQHRLDQDKIEALSSKVQQLERSIGLKDLAMADLEQKVLEMEASTYDGVFIWKISDFARKRQEAVAGRIPAIFSPAFYTSRYGYKMCLRIYLNGDGTGRGTHLSLFFVVMKGPNDALLRWPFNQKVTLMLLDQNNREHVIDAFRPDVTSSSFQRPVNDMNIASGCPLFCPVSKMEAKNSYVRDDAIFIKAIVDLTGL
# partner: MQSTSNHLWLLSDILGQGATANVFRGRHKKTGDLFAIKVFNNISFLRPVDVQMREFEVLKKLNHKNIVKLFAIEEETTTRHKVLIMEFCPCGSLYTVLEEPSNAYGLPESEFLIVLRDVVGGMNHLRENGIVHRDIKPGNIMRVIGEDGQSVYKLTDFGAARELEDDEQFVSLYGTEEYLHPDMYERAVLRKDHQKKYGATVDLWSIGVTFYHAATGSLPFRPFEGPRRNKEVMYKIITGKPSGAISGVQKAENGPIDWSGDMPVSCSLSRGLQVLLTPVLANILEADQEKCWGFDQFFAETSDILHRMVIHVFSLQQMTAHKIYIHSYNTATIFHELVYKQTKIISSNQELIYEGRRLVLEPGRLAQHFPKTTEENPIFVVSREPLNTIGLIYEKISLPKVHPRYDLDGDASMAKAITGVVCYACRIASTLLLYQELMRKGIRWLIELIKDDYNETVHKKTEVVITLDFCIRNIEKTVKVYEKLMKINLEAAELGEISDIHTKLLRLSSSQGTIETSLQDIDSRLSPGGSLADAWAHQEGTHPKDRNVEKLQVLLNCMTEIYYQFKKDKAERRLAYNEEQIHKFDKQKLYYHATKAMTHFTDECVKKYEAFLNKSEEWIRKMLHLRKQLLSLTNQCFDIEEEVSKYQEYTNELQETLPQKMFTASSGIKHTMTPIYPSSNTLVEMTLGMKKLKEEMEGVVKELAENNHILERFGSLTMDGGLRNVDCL
# B3: Inducible T-cell costimulator (Homo sapiens), Q9Y6W8 (parent)
# chain: B1 chain
# partner: B2 partner
# B4: TNF receptor-associated factor 3 (Homo sapiens), Q13114 (parent)
# chain: MESSKKMDSPGALQTNPPLKLHTDRSAGTPVFVPEQGGYKEKFVKTVEDKYKCEKCHLVLCSPKQTECGHRFCESCMAALLSSSSPKCTACQESIVKDKVFKDNCCKREILALQIYCRNESRGCAEQLMLGHLLVHLKNDCHFEELPCVRPDCKEKVLRKDLRDHVEKACKYREATCSHCKSQVPMIALQKHEDTDCPCVVVSCPHKCSVQTLLRSELSAHLSECVNAPSTCSFKRYGCVFQGTNQQIKAHEASSAVQHVNLLKEWSNSLEKKVSLLQNESVEKNKSIQSLHNQICSFEIEIERQKEMLRNNESKILHLQRVIDSQAEKLKELDKEIRPFRQNWEEADSMKSSVESLQNRVTELESVDKSAGQVARNTGLLESQLSRHDQMLSVHDIRLADMDLRFQVLETASYNGVLIWKIRDYKRRKQEAVMGKTLSLYSQPFYTGYFGYKMCARVYLNGDGMGKGTHLSLFFVIMRGEYDALLPWPFKQKVTLMLMDQGSSRRHLGDAFKPDPNSSSFKKPTGEMNIASGCPVFVAQTVLENGTYIKDDTIFIKVIVDTSDLPDP
# partner: B2 partner
# Variants of: B1
# Settings: with p85a_human PIK3R1, P27986
# Sequence of p85a_human PIK3R1, P27986 (P27986 whole entry): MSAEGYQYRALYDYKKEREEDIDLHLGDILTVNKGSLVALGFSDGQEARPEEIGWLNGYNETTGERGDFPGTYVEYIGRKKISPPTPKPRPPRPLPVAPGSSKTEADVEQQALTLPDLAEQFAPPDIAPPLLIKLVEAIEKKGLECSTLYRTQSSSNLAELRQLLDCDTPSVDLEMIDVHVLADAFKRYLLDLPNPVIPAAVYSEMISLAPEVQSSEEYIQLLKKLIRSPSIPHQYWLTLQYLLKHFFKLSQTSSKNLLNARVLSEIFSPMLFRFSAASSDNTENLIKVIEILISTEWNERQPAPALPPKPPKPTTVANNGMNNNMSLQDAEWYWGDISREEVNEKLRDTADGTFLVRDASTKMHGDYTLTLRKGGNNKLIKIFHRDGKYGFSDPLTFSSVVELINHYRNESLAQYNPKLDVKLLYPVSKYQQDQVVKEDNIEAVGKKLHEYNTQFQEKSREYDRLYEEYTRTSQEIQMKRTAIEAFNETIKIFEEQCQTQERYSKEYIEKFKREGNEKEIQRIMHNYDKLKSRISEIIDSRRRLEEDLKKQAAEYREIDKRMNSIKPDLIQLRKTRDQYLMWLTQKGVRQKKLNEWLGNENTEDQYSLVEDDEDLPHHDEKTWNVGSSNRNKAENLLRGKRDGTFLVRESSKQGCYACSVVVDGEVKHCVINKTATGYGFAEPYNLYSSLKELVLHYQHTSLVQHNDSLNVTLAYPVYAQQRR
row,Variant,effect of a mutation on the interaction
1,Y180F,disrupting interaction strength

# Variants of: B1
# Settings: with p85a_human PIK3R1, P27986
# Remark: another data set of the same source
row,Variant,effect of a mutation on the interaction
1,S170A;S171A;S172A;V173A;H174A;D175A;P176A;N177A;G178A;E179A,with no effect

# Variants of: B2
# Settings: with tbk1_human TBK1, Q9UHD2
row,Variant,effect of a mutation on the interaction
1,S453A;S454A;S455A;F456A;Q457A;R458A;P459A;V460A;N461A;D462A,disrupting interaction strength

# Variants of: B3
# Settings: with tbk1_human TBK1, Q9UHD2
row,Variant,effect of a mutation on the interaction
1,Y180F,with no effect

# Variants of: B3
# Settings: with tbk1_human TBK1, Q9UHD2
# Remark: another data set of the same source
row,Variant,effect of a mutation on the interaction
1,S170A;S171A;S172A;V173A;H174A;D175A;P176A;N177A;G178A;E179A,decreasing interaction strength

# Variants of: B4
# Settings: with tbk1_human TBK1, Q9UHD2
row,Variant,effect of a mutation on the interaction
1,S518A;S519A;S520A;F521A;K522A;K523A;P524A;T525A;G526A;E527A,decreasing interaction strength
